The values below come from patent US6022855A, “Methods and reagents for inhibiting furin endoprotease” (Oregan Health Sciences University, priority 1995, dated 2000).

Positions count from the first letter of the chain named.

The target in series [1] is furin endoprotease endogenous to BSC-40 cells.
Series [2] deals with thrombin.
For series [3], the target named is elastase.
Series [4] deals with furin-mediated processing of pro-β-NGF in BSC-40 cells. The series is classed as cell-based, African green monkey.
Series [5] deals with elastase. Type of series: biochemical. Particulars: relative concentration of serpin inhibitor 100.
The next series relates to Human furin. The series is classed as biochemical. Particulars: for percent endoprotease activity in presence of each serpin (Furin): relative concentration of serpin inhibitor 100; for inhibition of furin endoprotease activity (FIG. 2, in words): serpin 10 μg/mL, 20 min 37° C. pre-incubation, substrate 50 μM.
In series [6] the test system is syncytium formation IP/IR cells / CD4+ HeLa cells. Type of series: cell-based, human. Particulars: serpin co-expressed with gp160 in IP/IR cells.
Series [7] has as its system furin-mediated processing of HIV-1 gp160 in BSC-40 cells. The series is classed as cell-based, African green monkey.
Series [8] concerns thrombin. The series is classed as biochemical.

α1 -antitrypsin Portland: in series [1], the percent of pro-β-NGF processed in VV:mNGF-infected BSC-40 cells with α1 -PDX protein in the medium (densitometry) (% processed at 50 µg/mL) is 10. The percent endoprotease activity in presence of each serpin with thrombin [2] was 95%; with elastase [3], 101%.
Regarding α1 -antitrypsin Pittsburgh, the percent endoprotease activity in presence of each serpin came out at 8% with thrombin [2] and 98% with elastase [3].
Turning to native α1 -antitrypsin, the percent endoprotease activity in presence of each serpin with elastase [3] was found to be 13%.

B1: α1 -NAT: native α1-antitrypsin, naturally-occurring protease inhibitor (-Ala-Ile-Pro-Met- at positions 355-358) (protein)
chain: EDPQGDAAQKTDTSHHDQDHPTFNKITPNLAEFAFSLYRQLAHQSNSTNIFFSPVSIATAFAMLSLGTKADTHDEILEGLNFNLTQIPEAQIHEGFQELLRTLNQPDSQLQLTTGNGLFLSQGLKLVDKFLEDVKKLYHSEAFTVNFGDTEQAKKQINDYVEKGTQGKIVDLVKELDRDTVFALVNYIFFKGKWERPFEVKDTEEEDFHVDQVTTVKVPMMKRLGMFNIQHCKKLSSWVLLMKYLGNATAIFFLPDEGKLQHLENELTHDIITKFLENEDRRSASLHLPKLSITGTYDLKSVLGQLGITKVFSNGADLSGVTEEAPLKLSKAVHKAVLTIDEKGTEAAGAMFLEAIPMSIPPEVKFNKPFVFLMIEQNTKSPLFMGKVVNPTGK
As to B1, in series [4], the “forms of β-NGF secreted by co-infected cells (FIG. 3)” value was “produced both the processed and unprocessed forms of β-NGF”. Also, the “percent endoprotease activity in presence of each serpin (Elastase)” value in the series on elastase [5] was determined as 13%. Also, in the series on Human furin, the “percent endoprotease activity in presence of each serpin (Furin)” value is listed as 101% and the “inhibition of furin endoprotease activity (FIG. 2, in words)” value was “unable to inhibit”. Also, the “effect on gp41-mediated syncytia formation (FIGS. 6D-6F)” value in [6] is reported as “had no effect on syncytia formation”. In addition, in series [7], the “gp160 processing products in co-infected cells (FIG. 4)” value is “produced both unprocessed gp160 and processed gp120 and gp41”.

B2: α1 -PIT: naturally-occurring variant α1-antitrypsin Pittsburgh, Met358→Arg358 mutation (Ala355-Ile-Pro-Arg358) (protein)
chain: B1 chain with M358R
On to B2, for which the “forms of β-NGF secreted by co-infected cells (FIG. 3)” value in series [4] was “produced both the processed and unprocessed forms of β-NGF”. Moreover, the “percent endoprotease activity in presence of each serpin (Elastase)” value with elastase [5] is listed as 98%. Further, in the series with Human furin, the “percent endoprotease activity in presence of each serpin (Furin)” value came out at 97% and the “inhibition of furin endoprotease activity (FIG. 2, in words)” value is recorded as “not furin”. The “inhibition of thrombin endoprotease activity (FIG. 2, in words)” value in the series on thrombin [8] (FIG. 2) is recorded as “specifically inhibited”. For the same molecule, in the series on thrombin [8] (relative concentration of serpin inhibitor 100), the “percent endoprotease activity in presence of each serpin (Thrombin)” value was 8%. Further, the “effect on gp41-mediated syncytia formation (FIGS. 6D-6F)” value in [6] was “had no effect on syncytia formation”. Also, in [7], the “gp160 processing products in co-infected cells (FIG. 4)” value was “produced both unprocessed gp160 and processed gp120 and gp41”.
